From article PMC6065357, “Structural insights into SorCS2–Nerve Growth Factor complex formation” (Nature Communications, 2018)

B1: mouse SorCS2 mature extracellular segment (sSorCS2, residues 117-1072) (receptor)
chain: not shown
notes: SorCS2, mouse, residues 117-1072: the mature extracellular segment, without signal peptide and pro-peptide; Expressed from pUPE107.03 with a cystatin secretion signal peptide; For the unliganded crystal the protein was deglycosylated with EndoHf and treated with trypsin (limited proteolysis); also called SorCS2 ectodomain; wt sSorCS2; source: HEK293-ES (GnTI-) or HEK293-E, secreted, purified …

What was measured:
[1] = biological target: the molecule itself; experiment: crystal structure; sSorCS2 mixed with proNGF 1:1.1, 1 mM calcium chloride; proNGF degraded to NGF in the drop; 0.225 M MES/bis-tris pH 6.6; 3.9 Å
[2] = biological target: B1; experiment: SPR; IBIS MX96; NGF, proNGF and proBDNF amine-coupled to a P-COOH SensEye sensor; wt and mutant sSorCS2 flowed as analyte; 25 mM HEPES pH 7.4, 150 mM NaCl, 0.005 % Tween 20; 25 °C; equilibrium binding, one site saturation model (two site saturation model for proBDNF); details: both partners purified

B1
stoichiometry N [1]: 2

B2: pro-brain-derived neurotrophic factor (proBDNF, residues 19-249, furin sites changed to AA) (ligand)
chain: APMKEVNVHGQGNLAYPGVRTHGTLESVNGPRAGSRGLTTTSLADTFEHVIEELLDEDQKVRPNEENHKDADLYTSRVMLSSQVPLEPPLLFLLEEYKNYLDAANMSMRVAAHSDPARRGELSVCDSISEWVTAADKKTAVDMSGGTVTVLEKVPVSKGQLKQYFYETKCNPMGYTKEGCRGIDKRHWNSQCRTTQSYVRALTMDSKKRIGWRFIRIDTSCVCTLTIKRGR
Kd [2]: 69 nM
